According to PMC8096068, “The canonical α-SNAP is essential for gametophytic development in Arabidopsis” (PLoS Genetics, 2021):

Target: T1, His-NSF (Arabidopsis, UniProt Q9M0Y8 1-742)
T1 construct: Arabidopsis thaliana N-ethylmaleimide-sensitive factor (NSF), At4g04910; also called NSF-His; his-tagged NSF
T1 sequence (looked up): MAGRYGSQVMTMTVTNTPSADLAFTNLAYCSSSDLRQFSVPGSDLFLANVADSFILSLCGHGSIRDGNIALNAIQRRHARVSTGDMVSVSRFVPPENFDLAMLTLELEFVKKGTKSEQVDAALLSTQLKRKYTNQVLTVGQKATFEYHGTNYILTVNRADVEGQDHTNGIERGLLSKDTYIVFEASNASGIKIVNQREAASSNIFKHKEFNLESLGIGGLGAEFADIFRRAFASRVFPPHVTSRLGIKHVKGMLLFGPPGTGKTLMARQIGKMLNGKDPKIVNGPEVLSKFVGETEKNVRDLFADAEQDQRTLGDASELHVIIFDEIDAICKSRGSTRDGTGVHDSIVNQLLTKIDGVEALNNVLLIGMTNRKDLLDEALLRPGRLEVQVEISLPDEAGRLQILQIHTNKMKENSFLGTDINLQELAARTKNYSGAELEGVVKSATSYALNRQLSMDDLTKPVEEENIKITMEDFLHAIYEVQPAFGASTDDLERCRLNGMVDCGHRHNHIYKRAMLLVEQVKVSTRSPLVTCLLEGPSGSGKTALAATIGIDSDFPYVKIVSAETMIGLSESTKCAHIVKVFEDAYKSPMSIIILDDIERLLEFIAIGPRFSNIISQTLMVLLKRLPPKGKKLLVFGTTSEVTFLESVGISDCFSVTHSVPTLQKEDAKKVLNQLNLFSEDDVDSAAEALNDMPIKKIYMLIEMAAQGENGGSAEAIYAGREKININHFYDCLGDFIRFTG
Test: pull-down; in vitro pull-down; NSF-His used to pull down ASNAP.1-GST or ASNAP.2-GST; recombinant proteins from E. coli, affinity-purified
Details: both partners purified

binding result: binds
B1: GST-ASNAP.1 (natural protein, Arabidopsis, UniProt Q9SPE6 1-289, looked up)
chain: MGDHLVRAEEFEKKAEKKLNGWGIFGSKYEDAADLLEKAANSYKLAKSWDQAGKAYLKLADCHLKSDSKHDAANAYAEAAKCYKKVDTNEAASCLERAVNIFCEIGRLNMAARYYKEIAEYYESDQKFEQAIAYFEKAAEFFQNEEVTTSANQCNLKVAQYAAQLEQYEKAIKIYEDIARHSLNNNLLKYGVKGHLLTAGMCHLCKADVVSITNALEKYQDLDPTFTGTRECKFLADLASAIDEEDIAKFTDVVKEFDSMTPLDSWKTTMLLRVKEKLKAKELEEDDLT
notes: Arabidopsis thaliana alpha-soluble NSF attachment protein ASNAP, splicing variant ASNAP.1 (At3g56190.1); The only vector named for the pull-down constructs is pET-32a, which is not a GST vector; also called ASNAP.1-GST; α-SNAP.1
